Test results published in publication PMC11342271, “A high-throughput screening identifies MCM chromatin loading inhibitors targeting cells with increased replication origins” (iScience, 2024).

Assays:
[1] = molecular target: T1, recombinant Xenopus laevis CDC6 (rCDC6) (Xenopus laevis, UniProt P79946); assay: isothermal titration calorimetry, one-site fit; type: binding; conditions: 25 °C; PBS, 10% glycerol, 1 mM MgCl2, 1 mM DTT, 1% DMSO; CDC6 74 μM (75 μM in methods) titrated with 1 mM compound
T1 construct: gene cdc6.S; full-length; GST fusion from pGEX-6P-1 in E. coli Rosetta (DE3); GST cleaved with HRV 3C protease; Resource S and Superdex 200 purified
T1 sequence (P79946 1-554): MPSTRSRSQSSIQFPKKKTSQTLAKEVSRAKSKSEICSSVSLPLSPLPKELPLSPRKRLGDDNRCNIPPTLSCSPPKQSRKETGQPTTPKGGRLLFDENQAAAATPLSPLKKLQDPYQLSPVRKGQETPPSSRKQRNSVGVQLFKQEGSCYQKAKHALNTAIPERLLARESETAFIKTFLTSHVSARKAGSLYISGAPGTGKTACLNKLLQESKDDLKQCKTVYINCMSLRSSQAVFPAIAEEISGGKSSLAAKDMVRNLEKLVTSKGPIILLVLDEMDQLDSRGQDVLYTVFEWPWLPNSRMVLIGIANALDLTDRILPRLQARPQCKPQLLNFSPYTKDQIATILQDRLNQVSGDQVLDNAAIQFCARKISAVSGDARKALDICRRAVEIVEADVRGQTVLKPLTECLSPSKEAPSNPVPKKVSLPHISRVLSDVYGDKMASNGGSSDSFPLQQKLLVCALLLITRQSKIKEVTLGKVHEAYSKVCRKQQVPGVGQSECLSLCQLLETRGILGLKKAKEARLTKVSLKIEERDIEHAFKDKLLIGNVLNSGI

[2] = system: MCM2-7 (detected via MCM7) (Xenopus laevis); assay: ELISA (MCM7) on immobilized DNA; conditions: 5' biotin (BtnTg), Interphase Xenopus laevis egg extract (HSS; 2-fold diluted in ELISA), 30 min, room temperature (ELISA), wash buffer, salt and pH not given in the material

Row | Kd [1] [nM] | Molecule | binding signal ([2]; + 187 uM NSC-95397 (reduction at least 40%)) | binding signal ([2]; + 187 uM aminacrine (DNA intercalator; reduction at least 40%)) | binding signal ([2]; + 187 uM ethacridine (DNA intercalator; reduction at least 40%))
1 | 323 ± 269 | O=C1C(SCCO)=C(SCCO)C(=O)c2ccccc21 [NSC-95397, 2,3-bis(2-hydroxyethylsulfanyl) naphthalene-1,4-dione] | – | – | –
2 | – | bDNA (1.8 kb biotinylated DNA) | < 60 % of DMSO | < 60 % of DMSO | < 60 % of DMSO
